What was measured:
HeLa Kyoto [1] = test: solubility change mitosis vs G1/S (difference of NP-40 vs SDS log2 ratios) (log2 ratio difference); higher = more soluble in mitosis
HeLa Kyoto [2] = test: solubility in G1/S (NP-40 vs SDS abundance) (log2 ratio); higher = more soluble; conditions: cell cycle stage: G1/S
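Wherever solubility change mitosis vs G1/S (difference of NP-40 vs SDS log2 ratios) is given: synchronized HeLa Kyoto cells (double thymidine block for G1/S, nocodazole release for mitosis), protein amounts in NP-40 versus SDS lysates quantified by mass spectrometry, three biological replicates.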
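Wherever solubility in G1/S (NP-40 vs SDS abundance) is given: HeLa Kyoto cells arrested at G1/S by double thymidine block, proteins quantified by TMT10plex mass spectrometry in mild NP-40 versus SDS extracts, three biological replicates.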

| Substance | solubility change mitosis (log2) (HeLa Kyoto [1]) | solubility in G1/S (log2) (HeLa Kyoto [2]) |
| --- | --- | --- |
| NUFIP1 | 0.162 | -0.519 |
| MAAPCLLRQGRAGALKTMLQEAQVFRGLASTVSLSAESGKSEKGQPQNSKKQSPPKKPAPVPAEPFDNTTYKNLQHHDYSTYTFLDLNLELSKFRMPQPSSGRESPRH [NDUFV3] | -0.0477 | 0.224 |
| MAQASLLACEGLAGVSLVPTAASKKMMLSQIASKQAENGERAGSPDVLRCSSQGHRKDSDKSRSRKDDDSLSEASHSKKTVKKVVVVEQNGSFQVKIPKNFVCEHCFGAFRSSYHLKRHILIHTGEKPFECDICDMRFIQKYHLERHKRVHSGEKPYQCERCHQCFSRTDRLLRHKRMCQGCQSKTSDGQFSL [ZNF740] | -0.0892 | -0.111 |
| MALFVRLLALALALALGPAATLAGPAKSPYQLVLQHSRLRGRQHGPNVCAVQKVIGTNRKYFTNCKQWYQRKICGKSTVISYECCPGYEKVPGEKGCPAALPLSNLYETLGVVGSTTTQLYTDRTEKLRPEMEGPGSFTIFAPSNEAWASLPAEVLDSLVSNVNIELLNALRYHMVGRRVLTDELKHGMTLTSMYQNSNIQIHHYPNGIVTVNCARLLKADHHATNGVVHLIDKVISTITNNIQQIIEIEDTFETLRAAVAASGLNTMLEGNGQYTLLAPTNEAFEKIPSETLNRILGDPEALRDLLNNHILKSAMCAEAIVAGLSVETLEGTTLEVGCSGDMLTINGKAIISNKDILATNGVIHYIDELLIPDSAKTLFELAAESDVSTAIDLFRQAGLGNHLSGSERLTLLAPLNSVFKDGTPPIDAHTRNLLRNHIIKDQLASKYLYHGQTLETLGGKKLRVFVYRNSLCIENSCIAAHDKRGRYGTLFTMDRVLTPPMGTVMDVLKGDNRFSMLVAAIQSAGLTETLNREGVYTVFAPTNEAFRALPPRERSRLLGDAKELANILKYHIGDEILVSGGIGALVRLKSLQGDKLEVSLKNNVVSVNKEPVAEPDIMATNGVVHVITNVLQPPANRPQERGDELADSALEIFKQASAFSRASQRSVRLAPVYQKLLERMKH [TGFBI] | -0.149 | -0.072 |
| MSTFRQEDVEDHYEMGEELGSGQFAIVRKCRQKGTGKEYAAKFIKKRRLSSSRRGVSREEIEREVNILREIRHPNIITLHDIFENKTDVVLILELVSGGELFDFLAEKESLTEDEATQFLKQILDGVHYLHSKRIAHFDLKPENIMLLDKNVPNPRIKLIDFGIAHKIEAGNEFKNIFGTPEFVAPEIVNYEPLGLEADMWSIGVITYILLSGASPFLGETKQETLTNISAVNYDFDEEYFSNTSELAKDFIRRLLVKDPKRRMTIAQSLEHSWIKAIRRRNVRGEDSGRKPERRRLKTTRLKEYTIKSHSSLPPNNSYADFERFSKVLEEAAAAEEGLRELQRSRRLCHEDVEALAAIYEEKEAWYREESDSLGQDLRRLRQELLKTEALKRQAQEEAKGALLGTSGLKRRFSRLENRYEALAKQVASEMRFVQDLVRALEQEKLQGVECGLR [DAPK3] | -0.0326 | -0.721 |
| MGDWMTVTDPGLSSESKTISQYTSETKMSPSSLYSQQVLCSSIPLSKNVHSFFSAFCTEDNIEQSISYLDQELTTFGFPSLYEESKGKETKRELNIVAVLNCMNELLVLQRKNLLAQENVETQNLKLGSDMDHLQSCYSKLKEQLETSRREMIGLQERDRQLQCKNRNLHQLLKNEKDEVQKLQNIIASRATQYNHDMKRKEREYNKLKERLHQLVMNKKDKKIAMDILNYVGRADGKRGSWRTGKTEARNEDEMYKILLNDYEYRQKQILMENAELKKVLQQMKKEMISLLSPQKKKPRERVDDSTGTVISDVEEDAGELSRESMWDLSCETVREQLTNSIRKQWRILKSHVEKLDNQVSKVHLEGFNDEDVISRQDHEQETEKLELEIQQCKEMIKTQQQLLQQQLATAYDDDTTSLLRDCYLLEEKERLKEEWSLFKEQKKNFERERRSFTEAAIRLGLERKAFEEERASWLKQQFLNMTTFDHQNSENVKLFSAFSGSSDWDNLIVHSRQPQKKPHSVSNGSPVCMSKLTKSLPASPSTSDFCQTRSCISEHSSINVLNITAEEIKPNQVGGECTNQKWSVASRPGSQEGCYSGCSLSYTNSHVEKDDLP [SSX2IP] | 0.187 | -0.387 |
| MQARYSVSSPNSLGVVPYLGGEQSYYRAAAAAAGGGYTAMPAPMSVYSHPAHAEQYPGGMARAYGPYTPQPQPKDMVKPPYSYIALITMAIQNAPDKKITLNGIYQFIMDRFPFYRDNKQGWQNSIRHNLSLNECFVKVPRDDKKPGKGSYWTLDPDSYNMFENGSFLRRRRRFKKKDAVKDKEEKDRLHLKEPPPPGRQPPPAPPEQADGNAPGPQPPPVRIQDIKTENGTCPSPPQPLSPAAALGSGSAAAVPKIESPDSSSSSLSSGSSPPGSLPSARPLSLDGADSAPPPPAPSAPPPHHSQGFSVDNIMTSLRGSPQSAAAELSSGLLASAAASSRAGIAPPLALGAYSPGQSSLYSSPCSQTSSAGSSGGGGGGAGAAGGAGGAGTYHCNLQAMSLYAAGERGGHLQGAPGGAGGSAVDDPLPDYSLPPVTSSSSSSLSHGGGGGGGGGGQEAGHHPAAHQGRLTSWYLNQAGGDLGHLASAAAAAAAAGYPGQQQNFHSVREMFESQRIGLNNSPVNGNSSCQMAFPSSQSLYRTSGAFVYDCSKF [FOXC1] | -0.0439 | 0.0673 |
| MDRFLVKGAQGGLLRKQEEQEPTGEEPAVLGGDKESTRKRPRREAPGNGGHSAGPSWRHIRAEGLDCSYTVLFGKAEADEIFQELEKEVEYFTGALARVQVFGKWHSVPRKQATYGDAGLTYTFSGLTLSPKPWIPVLERIRDHVSGVTGQTFNFVLINRYKDGCDHIGEHRDDERELAPGSPIASVSFGACRDFVFRHKDSRGKSPSRRVAVVRLPLAHGSLLMMNHPTNTHWYHSLPVRKKVLAPRVNLTFRKILLTKK [ALKBH2] | 0.0123 | 0.0785 |
